Measured values published in US20100036095A1.

Target: C8/C9 (complement components C8 and C9 of normal human serum, in the assembling membrane attack complex) (human), P07357
Test: cell-based or functional assay

C8/C9 (complement components C8 and C9 of normal human serum, in the assembling membrane attack complex) (human), P07357, sequence (P07357 31-584 limits assumed, chain 1 of 4): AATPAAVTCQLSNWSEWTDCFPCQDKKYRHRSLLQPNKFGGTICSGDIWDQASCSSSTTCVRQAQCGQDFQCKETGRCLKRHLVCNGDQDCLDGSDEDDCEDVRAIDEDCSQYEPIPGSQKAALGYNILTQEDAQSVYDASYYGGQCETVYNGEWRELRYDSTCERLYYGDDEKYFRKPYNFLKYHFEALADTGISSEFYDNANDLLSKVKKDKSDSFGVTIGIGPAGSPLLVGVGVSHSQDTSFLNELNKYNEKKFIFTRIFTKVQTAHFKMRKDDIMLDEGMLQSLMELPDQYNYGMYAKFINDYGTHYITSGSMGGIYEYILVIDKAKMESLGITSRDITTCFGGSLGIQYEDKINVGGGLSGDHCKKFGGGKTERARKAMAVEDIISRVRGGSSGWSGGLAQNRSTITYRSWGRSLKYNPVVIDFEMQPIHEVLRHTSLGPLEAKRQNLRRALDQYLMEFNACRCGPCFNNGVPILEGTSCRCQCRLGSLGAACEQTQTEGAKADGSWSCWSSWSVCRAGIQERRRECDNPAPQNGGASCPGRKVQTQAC
C8/C9 (complement components C8 and C9 of normal human serum, in the assembling membrane attack complex) (human), P07357, sequence (P07358 55-591 limits assumed, chain 2 of 4, further chain): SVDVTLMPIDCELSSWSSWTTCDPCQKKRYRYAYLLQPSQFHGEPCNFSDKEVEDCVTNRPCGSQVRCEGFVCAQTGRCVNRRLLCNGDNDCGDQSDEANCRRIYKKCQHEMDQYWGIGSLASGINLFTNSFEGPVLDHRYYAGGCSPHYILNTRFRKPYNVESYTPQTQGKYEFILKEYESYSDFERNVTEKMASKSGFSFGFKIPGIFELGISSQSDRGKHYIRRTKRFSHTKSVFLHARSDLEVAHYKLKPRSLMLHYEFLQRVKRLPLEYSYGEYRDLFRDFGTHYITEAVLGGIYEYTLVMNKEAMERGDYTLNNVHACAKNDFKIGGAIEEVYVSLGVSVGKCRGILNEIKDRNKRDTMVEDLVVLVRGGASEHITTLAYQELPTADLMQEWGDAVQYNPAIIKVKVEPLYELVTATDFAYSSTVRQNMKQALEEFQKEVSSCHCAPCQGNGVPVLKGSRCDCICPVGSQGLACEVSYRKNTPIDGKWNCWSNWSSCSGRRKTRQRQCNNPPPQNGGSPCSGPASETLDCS
C8/C9 (complement components C8 and C9 of normal human serum, in the assembling membrane attack complex) (human), P07357, sequence (P07360 21-202 limits assumed, chain 3 of 4, further chain): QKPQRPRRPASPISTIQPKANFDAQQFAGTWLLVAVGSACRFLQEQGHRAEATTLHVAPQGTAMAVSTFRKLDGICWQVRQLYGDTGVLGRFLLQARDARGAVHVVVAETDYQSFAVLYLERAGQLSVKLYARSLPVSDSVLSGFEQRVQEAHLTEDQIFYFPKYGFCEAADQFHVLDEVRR
C8/C9 (complement components C8 and C9 of normal human serum, in the assembling membrane attack complex) (human), P07357, sequence (P02748 22-559 limits assumed, chain 4 of 4, further chain): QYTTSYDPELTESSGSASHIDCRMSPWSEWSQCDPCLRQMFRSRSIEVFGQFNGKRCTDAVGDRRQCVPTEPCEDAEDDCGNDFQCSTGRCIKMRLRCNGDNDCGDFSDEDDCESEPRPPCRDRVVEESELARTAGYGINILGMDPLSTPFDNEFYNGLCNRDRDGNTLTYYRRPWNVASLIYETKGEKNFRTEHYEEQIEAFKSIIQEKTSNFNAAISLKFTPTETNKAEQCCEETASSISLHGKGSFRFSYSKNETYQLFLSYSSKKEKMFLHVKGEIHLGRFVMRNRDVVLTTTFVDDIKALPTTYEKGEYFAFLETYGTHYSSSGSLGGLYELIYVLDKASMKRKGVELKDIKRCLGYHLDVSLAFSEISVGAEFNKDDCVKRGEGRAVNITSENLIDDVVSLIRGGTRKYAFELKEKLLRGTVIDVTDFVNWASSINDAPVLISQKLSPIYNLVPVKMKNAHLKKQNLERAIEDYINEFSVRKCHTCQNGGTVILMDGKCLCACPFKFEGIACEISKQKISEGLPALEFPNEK

B1: CR2-CD59 fusion protein containing CD59 T51A/S20A (protein)
chain: ISCGSPPPILNGRISYYSTPIAVGTVIRYSCSGTFRLIGEKSLLCITKDKVDGTWDKPAPKCEYFNKYSSCPEPIVPGGYKIRGSTPYRHGDSVTFACKTNFSMNGNKSVWCQANNMWGPTRLPTCVSVFPLECPALPMIHNGHHTSENVGSIAPGLSVTYSCESGYLLVGEKIINCLSSGKWSAVPPTCEEARCKSLGRFPNGKVKEPPILRVGVTANFFCDEGYRLQGPPSSRCVIAGQGVAWTKMPVCSGGGGSLQCYNCPNPTADCKTAVNCSADFDACLITKAGLQVYNKCWKFEHCNFNDVATRLRENELTYYCCKKDLCNFNEQLEN
**Q.** B1 was tested. Which inhibition of complement-mediated lysis of sensitized CHO cells by soluble protein in normal human serum (fold of wt CR2-CD59) did it give?
**A.** 3
